Experiment: yeast display, Sf9 membrane polyspecificity reagent, FACS + sequencing; frameworks hold sequencing errors
In short: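 Nanobodies came from a synthetic yeast display library in Saccharomyces cerevisiae BJ5465, induced with galactose for 36–48 hours and stained for 1 hour at 4 °C with 10% biotinylated, detergent-solubilized Sf9 membrane reagent. Cells were enriched on streptavidin microbeads and then FACS-sorted, with low and high (top ~1%) gates set on anti-HA fluorescence for expression and streptavidin fluorescence for reagent binding. Each polyreactivity label reflects the gate a clone came from. Genes were amplified by colony PCR, sequenced by MiSeq 2 × 250 and filtered by CDR length.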

Sequence	polyreactivity (PSR sort gate)
QVRLVESGGGLVQAGGSLRLSCADSGSTFTTYAIGWYRQEPGKERELVAAISSGGDTKYADSVKGRFTISRDNAKNTVYLQMNSLKPEDTAVYYWNVVSFRYYYKYGYCGQGTQVTVSS	high polyreactivity
QVQLVESGGGLVQAGGSLRLSCAASGRTFVDYDMGWYRQAPGKERELVADINSGGSAYYADSVKGRFTISRDNAKNTVYLQMNSLKPEDTAVYYCAASYYGDNKYDYWGQGTQVTVSS	high polyreactivity
PVQLVESGGGLVQAGGSLRLSCAASGFTFANYAMGWYRQAPGKERELVAAISRGGTSTYYADSVKGRFTISRDNAKNTVYFQMNSLKPEDTEVYFCNAVKVGYSLYDYWGQGTQVTVSS	high polyreactivity
QVQRVDSGGGLVQAGGSLRLTCAASGFTFSQYVMGWYRQAPGKARELVAAISYRGGSTYYADSVKGRFTISRDNAKNTVYVQMNSLKPEDTAVYYCAAVAYSWHNRYDYWGQGTQVTVSS	high polyreactivity
QVQLVESGGGLVQAGGSLRLSCAASGSTIWSNAMVWYRQAPGKERELVAVISGGTSTNYADSVKGRFTISRDNAKNTVYLQMNSLKPEDTAVFYCAADWGSYLILINDTDMDYWGQGTQVTVSS	low polyreactivity
QVQLVESGGGLVQAGGSLRLSCAASGRIFYYNAMGWYRPAPGKERELVAAIDWSGGSTYYADSVKGRFTISRDNAKNTVYLQMNSLKPEDTAVYYCNAPFRYVPPEGSGPYDYWGQGTQVTVSS	low polyreactivity
QVQLVESGGGLVQAGGSLRLSCASSGSTFAQNTMGWYRQAPRKERELVATISDGGGSTYYADSVKGRFTISRDNAKNTVYLQMNSLKPEDTAVYYCNTDRFWPSDYWGQGTQVTVSS	low polyreactivity
QVQLVESGGVLVQAGGSLRLSCAASGRTFTPYTMGCDRPAPGKERELVAAISWSGGTTYYADSVMGRFTISRDNSKITVYLQMNSLKRVDTAVYYCAARVSRTCHGYYYFWGQGTQVTVSS	high polyreactivity
QVQLVESGGGLVQAGGSLRLSCAASGFTFTRNAMGWYRQAPGKERELVAAISKSGGRTYYADSVKGRFTISRDNAKNTVYLKMNSLKPEDSAVYYCAVVPRPFGLGSDYDYWGQGTQVTVSS	high polyreactivity
QVQLVESGGGLVQAGGSLRLSCAASGLTFYQYAMGWYRQAPGKERELVAAISQSAGSTYYADSVKGRFTISRDNAKNTVYLQMNSLKPEDTAVYYCAARVLRLRYDYWGQGTQVTVSS	high polyreactivity
QVQLVESGGGLVQAGGSLRLSCAASGLIFGGNAMGWYRQAPGKERELVAAISRTGGRTYYADSVKGRFTISRDNAKNTVFLQMNSLKPEDTAVYYCAAAAQRPEGYYWGQGTQVTVSS	high polyreactivity
QVQLVESGGCLVQAGGSLRLSCAASGSIFRRNAMGWSRQAPGKERELVAAISRTGGSTYYADSVKGRFTISRDNAKNTVYLQLNSLKPEDTAVYYCNTYSDYADDDYWGQGTQVTVSS	high polyreactivity
QVQLVESGGGLVQAGGSLRLICAASGFIFRRYAMGWYRQSPGKERELVAAISSRGGSTYYADSVKGRFTISRDNAKNTVYLQMNSLKPEDTAVYYCAAYDAVTYPFDYWGQGTQVTVSS	high polyreactivity
QVQRVESGGGLVQAGGSLRLSCAASGFTFDRYAMGWYRQAPGKERELVAAISRSGGSTHYADSVKGRFTISRDNAKNTVYLQMNSLKPEDTAVYYCAKVYAPITALYFPTDRGDYCGQGTQVTVSS	high polyreactivity
QVQLVESGGCLVQAGGSLRLSCASSGNIFTIYTMGWYRQAPGKERELVASIYRGGTTYYADSVKGRFTISRDNAKNTVYLQMNSLKPEDTAVYYCAVYSPRLRRVHTRGYWGQGTQVTVSS	high polyreactivity
QVQLVESGGGLVQAGGSLRLSCAASGYIFGQNAMGWYRPAPRKERELVASISDGGSTYYADSVKGRFTISRDNAKNTVYLQMNSLKPEDTAVYYCAAGQYWGEKALGAWLFDYWGQGTQLTVSS	low polyreactivity
QVQLVESGGGLVQAGGSLSLSCAASVRIFVYNVMGWYRQAPGKERELVAAISWGTGSTYADSVKGRFTISRDNAKNTVYLQMNSLKPEDTAVYYCAAAADYYYDHDYWGQGTQVTVSS	low polyreactivity
QVQLVESGGGLVQAGGSLRLSCAASGYIFGYYTMGWYRQAPGKERELVATIRSGGSTYYADSVKGRFTISRDNAKNTVYLQMNSLKPEDTAVYYWAKRVRRISEYGYWGQGTQVTVSS	high polyreactivity
QVQLVESGGGLVQAGGSLRLSCAASGSTFPDYAMGWYRQAPGKERELVAAISWSGGSTYYADSVKGRFTISRDNAKNTVYLQMNSLKPEDTAVYYCAAGYSPPKPYSGGYYYWGQGTQVTVSS	low polyreactivity
QVKLVESAGGLVQAGGSHRLSCAASARIFRGNTRGWYRQAPGKEREVVARITWNGGTTNYADSVKGRFTISRDYAKNTVSLQMNSLKPVDTAVYYCAKGSLRQITGILSWYYYWRQGTQVTVSS	high polyreactivity
QVQLVESGGGLVQAGGSLRLICAATGSTFVYNAMGWYRQAPGKEREFVAVINWSGGRTYADSVKGRFTISRDNAKNTVYLQMNSLKPEDTAVYYCNGERRTYRVALQYRRYDYWGQGTQVTVSS	high polyreactivity
QVQLVESGGGLVQAGGSLRLSCAPSGSTLTSNAMGWYRQAPGKERELVAASRSGGSTNYADSVKGRFTISRDNAKNTVYLQMNSLKPEDTAVYYCNKDFLWQGYGYSRVSYDYWGQGTQVTVSS	low polyreactivity

Sequence	polyreactivity (PSR sort gate)
QVQLVKSGGGLVQAGGSLRLSCAASGSTFYNAMGWYRQAPGKERELVAAISIGGSTYYADSVKGRFTISRDNAKNTVYLQMNSLKPEDTAVYYCAAVWYTSRQKYDYWGHGTQVTVSS	low polyreactivity
QVQLLESGGGLVQAGGSLRLSCAASGFTFAWYAMGWYRQAPGKERELVAAISSRGSRTRYADSVKGRFTISRDNAKNTVYLQLNSLKPEDTAFYYCAKGSGARVVQVDRSGDYWGQGTQVTVSS	high polyreactivity
QVQLVESGGGLVQAVGSLRLSCAASGRTFQSYTMGWYRQAPGKEREFVAAFRDSGGSTYYADSVKGRFTISRDNAKNTVFLQMNSLKPEDTAVYYCAAYRPRKYDYWGQGTQVTVSS	high polyreactivity
QVQLVESGGGLVQAGGSLRLSCAASGIIFRFNGMGWYRQAPGKEREFVAAISGGAGSTYYADSVKGRFTISRDNAKNTVYLQMNSLKPEDTAVYYCAAVWRTRWASGYYWGQGTQVTVSS	high polyreactivity
QVQLVESGGGLVQAGRILRLSCAASGYIFRRYAMGWYRQAPGKERELVAVISSRGGSTYYADSVKGRFTISRDNATKTVYLQMNSLKPEDTAVYYCAARSGSRATFLSDYWGQGNQVTVSS	high polyreactivity
QVQLVESGGGLVQAGGSLRLSCAASGRIFPYNAMGWYRQAPGKERELVASITGSGGSTYYADSVKGRFTISRDKAKKTVYLQMNSLKPEDTAVYYCAVQGGYFYTWDGDYWGQGTQVTVSS	low polyreactivity
QVQLVESGGGLVQAGGSLRLSCAASGRIFYYNTMGWYRQAPGKERELVAAISSTASTTYADSVKGRFTISRDNAKNTDYIQMNSLKPEDTAVYYCAADHRYHWANPRGYYYWGQGTQVTVSS	high polyreactivity
QVQLVESGGGLVQAGGSLRLSCAASGLIFDYNAMGWYRQAPGKERELVAAISSGGSTYYADSVKGRFTISRDNAKNTVYLQMNSLKPEDTAVYYCATRRQAQYTRYYGSRQFYYWGQGTQVTVSS	high polyreactivity
QVQLVESGGGLVQAGGSLRLSCAASGRIFWYYAMGWYRQAPGKERELVAAITRSGASTYYADSVKGRFTISRDNAKNTVYLQMNSLKREDTAVYYCAADTGRYRYVYEYYYWGLGTQVTVSS	high polyreactivity
QVQLVESGGGLVQAGGSLRLSCAASGSTLSINAMGGYRQAAGKERELVAGITYSGGSEYYADSVKGRFSISRDNAKNNVYLQMNSMKPEDTAVYYCNKASGVYYGHLDYWRQGTQVTVSS	low polyreactivity
QVQLVESGGGLVQAGGSHRLSCSGSGFSLTLNAMGWYRQAPGKERELVAAISGNGGRTYYADSVKGRFTISRDNAKNTVYLQMNSLKPEDTAVYYCAARYTRTPSDCSTRKFGYGYWGQRTQVTVSS	high polyreactivity
QVQLQESGGGQVQAGGSLRQSCAASGSIFQATYMGWDRQAPSKEREFVASITYGSITNYADSVKGRFTIGRDNAKDTWYLQMNSLKPEDAAVYYCAVDRHYIPAFHYWGQGTQVNVSS	low polyreactivity
QVQLVESGGGLVQAGCSLRLSCAASGSIFPCNAMGWYRQAPGKERELVAAISRGCSTNYADSVKGRFTISRDNAKNTDYLQMNSLKPEDTSVFDCAVYYYSYHGGRGYDYWGQGTQVTVSS	high polyreactivity
QVQLVESGGGLVQAGGSLRLSCAASGRIFSVNAMGWYRQAPGTEREFVAAISWSGSSTYYADSVKGRFTSSRDNAKITVYLQMNSLKPEDTAVYYCNADIDFGTREVYYWGQGTQVTVSS	low polyreactivity
QVQLVESGGGLVQAGGSLRLICAASGITFYIYGMGWYRQAPGKERELVAAITSGGSTYYADSVKGRFTISRDNAKNTVYLQMNSLKPEDTAVYYCAAGRYYGKGYYYWGQGTQVTVSS	high polyreactivity
QVQRVESGGGLVQAGGSLRLSCAASGRIFGLNAMGWYRQAPGKERELVAAIDRSGASTYYADSVKGRFTISRDNAKNTVYLQMNSLKPEDSAVYYCAARIRTSDRRYYLGQGTQVTVSS	high polyreactivity
QVQLVESGGGLVQAGGSLRLSCAASGFTFVYYAMGWYRQAPGKERELVAAITSADSTNYADSVKGRFTISRDNAKNTVYLQMNSLKPEDTAVYYCNAVYDYYRQSKWTMVYWGQGTQVTVSS	low polyreactivity
QVQVVESGGGLVQAGGSLRLICAASGRIFDSNAMGWYRQEPVKERELVARIDPGDDTNSADSVKGRFTISRDNAKNTLYLQMNSLKPEDTAVYYCATDPDYVLYRTAYYEYDYWGQGTQVTVSS	low polyreactivity
QVQLVESGLGLVQAGGSLRISCAASGRIFYYNAMGWYRQAPGKERELVARIRRSGGRTYYADSVKGRFTISRDNAKNTVYLLMNSLKPADTAVYYCAARRQGRSGNGSWGQGTQVTVSW	high polyreactivity
QVQLVESGGGLVQAGGSLRISCAASGLTFEVYAMGWYRQAPGIERELVATITYSGGITYYADSVKGRFTISRDNAKNTVYLQMNSLKPEDTAVYYRIGFGGDYDYWGQGTQVTVSS	low polyreactivity
QVQLVESGGGLVQAGGSLRLSCAASGSTFVTNVMGWYRQATGKERELVAAISYSGGNTYYEDSVKGRFTISRDNAKNTVYLQMNSLKPEDTAVYYCAAKYRRWGMEYWGQGTQVTVSS	high polyreactivity
